Source: patent publication US20250270341A1 (Alector, published 2025)

T1: human CD98hc endogenously expressed on HCMEC/D3 cells (human)
T1 construct: human brain endothelial cell line
T1 chain: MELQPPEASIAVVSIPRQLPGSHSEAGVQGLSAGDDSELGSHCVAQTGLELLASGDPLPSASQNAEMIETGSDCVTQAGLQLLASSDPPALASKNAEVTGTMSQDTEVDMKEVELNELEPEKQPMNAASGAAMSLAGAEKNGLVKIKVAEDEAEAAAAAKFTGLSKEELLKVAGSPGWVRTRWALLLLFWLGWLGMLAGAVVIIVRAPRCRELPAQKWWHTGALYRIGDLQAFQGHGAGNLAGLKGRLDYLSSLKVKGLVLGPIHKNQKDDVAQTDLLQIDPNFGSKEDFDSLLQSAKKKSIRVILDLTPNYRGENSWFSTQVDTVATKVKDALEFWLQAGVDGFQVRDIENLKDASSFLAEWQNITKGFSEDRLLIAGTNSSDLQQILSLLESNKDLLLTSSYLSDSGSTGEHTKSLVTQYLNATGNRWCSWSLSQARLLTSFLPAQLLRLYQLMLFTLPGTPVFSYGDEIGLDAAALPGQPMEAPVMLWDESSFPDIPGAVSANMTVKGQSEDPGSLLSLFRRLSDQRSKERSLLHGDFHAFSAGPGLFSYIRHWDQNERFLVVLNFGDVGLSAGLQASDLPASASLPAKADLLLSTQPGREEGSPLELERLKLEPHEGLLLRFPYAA

T2: Full length human CD98hc on CHO cells (human)
T2 construct: CHO cells stably overexpressing it; also called CHO-human CD98hc; CHO-huCD98hc
T2 chain: T1 chain

T3: Full length mouse CD98hc on CHO cells (mouse, UniProt P10852 1-526)
T3 construct: CHO cells stably overexpressing it; also called CHO-mouse CD98hc; CHO-mCD98hc
T3 sequence: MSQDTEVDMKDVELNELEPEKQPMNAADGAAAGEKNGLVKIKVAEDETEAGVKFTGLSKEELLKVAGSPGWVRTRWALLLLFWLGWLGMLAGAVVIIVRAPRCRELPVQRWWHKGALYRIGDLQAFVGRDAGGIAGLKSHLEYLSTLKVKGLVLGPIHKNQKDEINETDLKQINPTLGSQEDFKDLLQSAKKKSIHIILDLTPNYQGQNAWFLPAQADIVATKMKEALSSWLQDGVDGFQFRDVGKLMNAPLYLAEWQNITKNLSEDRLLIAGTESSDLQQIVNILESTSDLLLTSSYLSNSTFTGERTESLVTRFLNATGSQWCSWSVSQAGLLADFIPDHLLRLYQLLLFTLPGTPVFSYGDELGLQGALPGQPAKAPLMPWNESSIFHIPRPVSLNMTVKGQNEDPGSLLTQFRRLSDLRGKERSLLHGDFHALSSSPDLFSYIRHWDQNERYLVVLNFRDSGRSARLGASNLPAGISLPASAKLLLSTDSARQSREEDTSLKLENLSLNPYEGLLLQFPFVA

B1: CD98HC.04.046 (antibody, V domains shown)
VH: QIQLVQSGPVLKKPGETVKISCKASGYTFTNFGMNWVKQAPGKGLKWMGWIDTYTREPTYVDDFKGRFAFSLETSVTTAYLQINDLKNEDSATYFCARGESHWYFDVWGAGTTVTVSS
VL: QIVLTQSPAIMSASLGERVTMTCIVSSSVSSSYLYWYQQKPGSSPKLWIYSTSILASGVPGRFSGSGSGTSYSLTISSMEAEDAATYYCHQYHRSPPTFGGGTKLEIK
notes: hybridoma IgG
B2: CD98HC.03.010 (antibody, V domains shown)
VH: EVQLQQSGTELVKPGASVKLSCTASGLDIKDTYLHWVKQRPEQGLEWIGKIDPANGNTKYNPKFQGKATITADTSSNTAYLQLSSLTSEDTAVHYCTTPYYSGSSYGDYWGQGTTLTVSS
VL: QIVLTQSPAIMSASPGEKVTLTCSASSSVSSSYLYWYQQKPGSSPKLWIYSTSNLASGVPARFSGSGSGTSYSLTISSMEAEDAASYFCHQWSRYPLTFGAGTKLELK
notes: hybridoma IgG
B3: CD98HC.04.063 (antibody, V domains shown)
VH: EVKLEESGGGLVQPGGSMILSCVASGFTFSNSWMNWVRQSPEKGLEWVAEIRLRSNNYATHYAESVKGRFTISRDDSKSTVYLQMNNLRAEDTGIYYCSRGDPGAYWGQGTLVTVSA
VL: DIQMTQSSSYLSVSLGNRVTITCKASDHIKNWLAWFQQKPGNAPRLLISGATILETGVPSRFSGSGSGKDYTLSITSLQTEDVATYYCQQYWSTPYTFGGGTKLEIK
notes: hybridoma IgG
B4: CD98HC.04.064 (antibody, V domains shown)
VH: QVQLQQPGAELVRPGASVKLSCKASGYTFTSYWMNWVRQRPGQGLEWIGLIDPSDSETHYNQMFKDRATLTVDKSSSTAYMQLSSLTSADPAVYYCARASYGKGYFDYWGQGTTLTVSS
VL: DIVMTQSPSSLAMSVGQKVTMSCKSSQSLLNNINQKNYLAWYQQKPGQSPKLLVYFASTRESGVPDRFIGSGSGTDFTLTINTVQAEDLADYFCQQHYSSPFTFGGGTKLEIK
notes: hybridoma IgG
B5: CD98HC.04.058 (antibody, V domains shown)
VH: QVQLQQSGAELVRPGVSVKISCKASGYTFTDHTMHWVKQSHARSLEWIGVISTYFGDASYNPKFKGKATMTVDKSSNTAYMELARLTSEDSAIYYCARVGGRLRLGYYFDYWGQGTTLTVSS
VL: NIMMTQSPSSLAVSAGEKVTMNCKSSQTVLYSSNQKNYLAWYQQKPGQSPKLLIYWASTRESGVPDRFTGSGSGTDFTLTISSVQVEDLAVYYCHQYLSSYTFGGGTKLEIK
notes: hybridoma IgG
B6: CD98HC.04.062 (antibody, V domains shown)
VH: EVQLVESGGDLVKPGGSLKLSCTASRFAFSTYDMSWVRQTPEKRLEWVAYISSGGGSTYFPDTVKGRFTISRDNAKNTLYLQMSSLKSEDTAMYYCARQDGHYPWFPYWGQGTLVTVSA
VL: DIVMSQSPSSLAVSVGEKVTMSCKSSQSLLYSGNQKTYLAWYQQKPGQSPKPLIYWASTRESGIPDRFTGSGSGTDFTLTISSVKAEDLAVYYCQQYYSYPPTFGAGTKLELK
notes: hybridoma IgG
B7: CD98HC.03.004 (antibody, V domains shown)
VH: DVQLQESGPGLVKPSQSLSLTCTVTGYSITNNYAWNWIRRFPGNKLEWMAYISYSGYTSYNPSLKSRISITRDTSKNQFFLQLNSVTTEDTATYYCTGYFYYYGGGSFDYWGQGTTLTVSS
VL: QAVVTQESALTTSPGETVTLTCRSSTGAVTTSNFANWVQEKPDHLFTGLIRGSNNRAPGVPARFSGSLIGDKAALTITGARTEDEAIYFCALWYSDHWVFGGGTKLTVL
notes: hybridoma IgG

Biological target: T1, human CD98hc endogenously expressed on …
Assay: FACS, hybridoma supernatant

| Binder | MFI ratio over secondary antibody |
| --- | --- |
| B1 | 147 |
| B2 | 190 |
| B3 | 124 |
| B4 | 277 |
| B5 | 158 |
| B6 | 91.8 |
| B7 | 189 |

Biological target: T2, Full length human CD98hc on CHO cells
Assay: FACS, hybridoma supernatant

| Binder | MFI ratio over secondary antibody |
| --- | --- |
| B1 | 27.7 |
| B2 | 25.8 |
| B3 | 34.4 |
| B4 | 46.6 |
| B5 | 33 |
| B6 | 25.1 |
| B7 | 34.4 |

Biological target: T3, Full length mouse CD98hc on CHO cells
Assay: FACS, hybridoma supernatant
Description: The IgG positive hybridoma supernatants (898 in total) were initially screened for their ability to differentially bind CHO cells overexpressing human or mouse CD98hc cells compared to CHO parental cells by FACS. Overexpressing cells were harvested, washed, and labeled with various concentrations and combinations of CellTrace cell proliferation dyes CFSE and Violet (ThermoFisher, Cat #C34554 and Cat #34557, respectively) to create uniquely barcoded cell populations. Barcoded cells (5×10⁴ of each cell population) were aliquoted into 96-well U-bottom plates and incubated with 50 μl of hybridoma cell culture supernatant or 1 μg/ml of commercially available purified mouse anti-human CD98hc monoclonal antibody (Sigma Aldrich, Cat #SAB 4700503) and rat anti-mouse CD98hc antibody (Bio-Rad Laboratories, Hercules, CA, Cat #MCA2684) on ice for 30 minutes. […] Following this secondary antibody incubation, the cells were again washed twice with ice-cold FACS buffer and resuspended in a final volume of 50 μl of FACS buffer containing 0.25 μl/well propidium iodide (BD Biosciences, Cat #556463). Binding intensity on cells was analyzed using the FACS Canto system (BD Biosciences), with sorting gates drawn to exclude dead (i.e., propidium iodide-positive) cells. For each barcoded cell population, the ratio of APC Mean Fluorescence Intensity (MFI) divided by secondary antibody MFI was calculated for each anti-CD98hc hybridoma supernatant tested and reported in Table 5.

| Binder | binding result |
| --- | --- |
| B1 | no binding |
| B2 | no binding |
| B3 | no binding |
| B4 | no binding |
| B5 | no binding |
| B6 | no binding |
| B7 | no binding |
